Laboratory results from patent US20150098947A1 (RESEARCH DEVELOPMENT FOUNDATION, published 2015).

T1: human Olfml3-FLAG (human, UniProt Q9NRN5 22-406, limits assumed)
T1 construct: Screening antigen of the hybridoma ELISA; the tag is written last only by convention; not shown: FLAG tag
T1 sequence (looked up): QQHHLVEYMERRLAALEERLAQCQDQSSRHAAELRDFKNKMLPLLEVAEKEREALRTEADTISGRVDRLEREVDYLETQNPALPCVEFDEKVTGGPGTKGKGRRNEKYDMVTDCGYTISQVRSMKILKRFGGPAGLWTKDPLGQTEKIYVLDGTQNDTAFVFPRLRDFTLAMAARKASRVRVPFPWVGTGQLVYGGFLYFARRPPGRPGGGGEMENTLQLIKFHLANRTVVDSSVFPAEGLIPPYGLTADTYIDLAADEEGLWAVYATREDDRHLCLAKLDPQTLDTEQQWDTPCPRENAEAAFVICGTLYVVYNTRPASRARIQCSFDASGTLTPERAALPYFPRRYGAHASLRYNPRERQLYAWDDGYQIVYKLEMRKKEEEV

T2: Olfml-3 peptide B (human Olfml3 390-403 aa, olfactomedin-like domain) (human)
T2 peptide: GYQIVYKLEMRKKE

T3: Olfml-3 peptide A (human Olfml3 86-99 aa, coiled-coil domain) (human)
T3 peptide: RVDRLEREVDYLET


Tests used:
human Olfml3-FLAG = molecular target: T1, human Olfml3-FLAG; test: hybridoma screening ELISA
Description: The inventors produced a panel of monoclonal antibodies against a recombinant Olfml-3 protein. Three antibodies against human Olfml3 were generated using standard techniques by injecting simultaneously two 14-aa long peptides comprising epitopes in the coiled-coil (peptide A, 86-99 aa: […]; SEQ ID NO: 5) and the olfactomedin-like domains (peptide B, 390-403 aa: […]; SEQ ID NO: 6) as immunogens in rats (Aurrand-Lions et al., 1996). Briefly, human Olfml3 peptides A and B coupled to 100 μg KLH carrier protein (keyhole limpet hemocyanin, Pierce) and mixed with adjuvant 56322 (Sigma), were used to immunize female Wister rats. In total, three injections were performed every 9 days. Two days after a final s.c. injection of human Olfml3 peptides, blasts from draining lymph nodes were fused to Sp2/0 cells, and hybridomas were selected in HAT-containing medium (Life Technologies). Growing clones were screened by ELISA for the production of monoclonal antibodies recognizing specifically human Olfml3-FLAG. Positive clones were subcloned, rescreened, and further tested. Antibodies were purified on protein G-Sepharose columns (GE HealthCare) according to the manufacturer instructions. Two Olfml3-binding antibodies, 46A9BO and 9F8BO, are of IgG2b isotype subclass and one, Z14A7, is of IgG2c isotype subclass. The 46A9BO and 9F8BO monoclonal antibodies were used for in vivo tumor graft models.

[1] = molecular target: T2, Olfml-3 peptide B (human Olfml3 390-403 …); test: peptide binding test (ELISA)
[2] = molecular target: T3, Olfml-3 peptide A (human Olfml3 86-99 …); test: peptide binding test (ELISA)

Row | binding result (human Olfml3-FLAG) | binding result [1] | binding result [2] | Binder
1 | binds | – | – | Z14A7 monoclonal antibody (antibody, IgG2c, V domains shown, Rat hybridoma antibody, IgG2c) VH: EVQLVETGGSLVQPGKSLKLTCATSGFTFSNAWMHWVRQSPEKQLEWVAQIKAKSNNYATYYAESVKGRFTISRDDSKSSIYLQMNSLKEEDTAIYYCLYGYYFDYWGQGVMVTVSS VL: DVVMTQTPVSLPVSLGGQASISCRSSQSLIHSNGNTYLHWFLQKPGQSPQLLIYRISNRFSGVPDRFSGSGSGTDFTLKISRVESEDLGLYYCLQGTHLPFTFGSGTKLEIKR
2 | binds | binds | no binding | 46A9BO monoclonal antibody (glycosylated) (antibody, IgG2b, V domains shown, also called mAb 2; anti-Olfml-3B) VH: AVHLVESGGGLVQPKESLKISCAASGFTFSNAAMYWVRQAPGKGLEWVARIRTKPNDYATYYVDSVKGRFTISRDDSQSMVYLQMDNLKTEDTAMYYCTAFTEPDYWGQGVMVTVSS VL: LIQPPSASVTLGSTVSLTCVGDELSKTYAHWYQQKPDKTIVSVIYKDSERPSGISDRFSGSSSGTTATLTIHGTLAEDEADYYCLSTYSDDNLPVFGGGTKLTVL
3 | – | binds | no binding | deglycosylated 46A9BO antibody (antibody, V domains shown, Same rat IgG2b antibody as 46A9BO after deglycosylation; also called 46A9BO (deglycosylated)) VH: AVHLVESGGGLVQPKESLKISCAASGFTFSNAAMYWVRQAPGKGLEWVARIRTKPNDYATYYVDSVKGRFTISRDDSQSMVYLQMDNLKTEDTAMYYCTAFTEPDYWGQGVMVTVSS VL: LIQPPSASVTLGSTVSLTCVGDELSKTYAHWYQQKPDKTIVSVIYKDSERPSGISDRFSGSSSGTTATLTIHGTLAEDEADYYCLSTYSDDNLPVFGGGTKLTVL
